T1: EndoU catalytic domain (human, UniProt P21128 135-410)
T1 sequence: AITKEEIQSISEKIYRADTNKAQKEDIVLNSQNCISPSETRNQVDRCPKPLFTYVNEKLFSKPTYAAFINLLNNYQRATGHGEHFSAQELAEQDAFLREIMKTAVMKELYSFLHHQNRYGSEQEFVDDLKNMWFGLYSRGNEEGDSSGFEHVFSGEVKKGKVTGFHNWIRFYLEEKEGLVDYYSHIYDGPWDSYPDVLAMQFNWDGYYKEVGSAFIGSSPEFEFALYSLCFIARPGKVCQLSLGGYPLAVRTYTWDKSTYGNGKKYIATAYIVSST


Molecular target: T1, EndoU catalytic domain
Assay: NMR; Ca2+ (calcium-activated EndoU); NMR: 10 mM Tris pH 7, 50 mM NaCl, 1 mM TCEP, 10% D2O, 35 C; EndoU 350 uM (Fig. 4)
Settings: protein: recombinant; tags: GB1-His6 removed by TEV; residual N-terminal GGSEFA; single strand

Binder	binding result
AAGUCC (XNA, 2'-F at all nucleotides (non-cleavable)) [2'-fluorinated RNA AAGUCC]	binds
UUUUUU (XNA, 2'-F) [2'F (U)6 RNA]	binds
